Measured values from US20250059499A1, “CELL-SURFACE ENGINEERING COMPOSITIONS AND METHODS FOR THE PREVENTION OF IMMUNE REJECTION” (THE UNIVERSITY OF BRITISH COLUMBIA, priority 2021, published 2025).
Entries after “also recorded” stand apart in the source; their conditions may differ. LPG = linear polyglycerol, Mn 14,900 Da

How the values were obtained:
[1] = system: TNF-α activated Ea.hy926 cells co-cultured with IL-2 activated PBMCs
Protocol: EA.hy 926 monolayers were activated using TNF-α and PBMCs were activated using IL-2 as described in PBMC adhesion experiments. Following activation, PBMC was collected and resuspended in DMEM (Phenol free, 5% FBS, pen/strep). PBMCs were then added to activated EA.hy 926 monolayers (modified and unmodified) to a final concentration of 0.15×10^6 cells/mL and left to incubate at 37° C. and 5% CO2 for 18 hour. After treatment, the supernatant was collected and cell debris was removed through centrifugation. LDH content was measured using LDC cytotoxicity assay (Biovision Inc.™). Cytotoxicity was calculated using the equation below;
where, LDHsample is the amount of LDH released from the sample, LDHPBMC is the amount of LDH released from PBMC samples not subjected to EA.hy 926 monolayers, LDHalive is the amount of LDH released from EA.hy 926 monolayers not subjected to PBMCs, and LDHdead is the amount of LDH released of EA.hy926 monolayers treated with RIPA buffer for 10 minutes at room temperature.

[2] = system: Ea.hy926 cells co-cultured with HLA-A2-reactive CAR T cells; assay type: cell-based; details: effector:target 2:1, 1:2 and 1:10, 18 hours
Protocol: The experiment was performed similar to previously described PBMC/Ea.hy926 co-culture experiments by replacing the effector with CAR-T cells. Ea.hy926 cells were engineered with polymers in UW solution as outlined. Cryopreserved CAR T cells were thawed using standard protocol41 and were pelleted and resuspended in phenol-free DMEM (5% FBS, pen/strep) at an effector (CAR-T cell) to target (Ea.hy926) ratios of 2:1, 1:2 and 1:10 (Vf=100 μL). After 18 hours, supernatants were removed from the wells and PBMCs were removed through centrifugation (300 g×5 minutes) and measured for LDH content to probe cell lysis using an LDH cytotoxicity assay (Biovision Inc.™). CAR-T cell-mediated cytotoxicity was calculated according to Eq. 2 replacing PBMC LDH release with CAR-T cell LDH release. LDH released by Ea.hy926 following 18 hour culture period that have not undergone polymer attachment and cultured in the absence of CAR-T cell is the 100% alive control and LDH released by Ea.hy926 following treatment with RIPA buffer for 10 minutes at ambient temperature is 100% dead control.

cell-surface ICAM-1 = test: ICAM-1 labelling by flow cytometry (immunocamouflage); assay type: cell-based, human; details: TNF-α activated Ea.hy926, 0.2-3.0 mM polymer, UW, 4° C.
Protocol: For ICAM-1 labelling, Ea.hy926 cells were activated with TNF-α (2000 U/mL, 3 hours)^9 in serum deficient DMEM to stimulate the expression of ICAM-1 on the cell surface before polymer attachment. To account for differences in reactivity between Q-tagged polymers, concentrations of polymer added to the solution were adjusted using NH3 generation data to ensure that a similar number of polymers attached to the cell surface. Following polymer attachment, the cells were fixed, and labelled with PE-Cy™5 Mouse Anti-Human CD54 (1:20, BD Biosciences™) for 20 minutes at room temp in the dark. The cell monolayers were trypsinized and subjected to flow cytometry (CytoFLEX™, Beckman Coulter™) in which 10,000 events were acquired and the median fluorescent intensity in the 667 channel was recorded

linear polyglycerol glutamine (Ac-GQQQLGGGGG-{LPG}; not fully specified; also: part of the polymer BODIPY FL-labelled in some experiments) [LPG-Q]
decrease of PBMC-mediated cytotoxicity compared to unmodified cells [1]: under 2 fold
dependence of PBMC-mediated cytotoxicity suppression on polymer concentration or sialylation [1]: no continued significant increase in immunosuppression was observed beyond 0.27 mM
CAR-T cell induced endothelial cell cytotoxicity [2]: reduced endothelial cytotoxicity
detection of ICAM-1 on the surface of endothelial cells (cell-surface ICAM-1): camouflages pro-inflammatory ICAM-1 receptors in a dose-dependent manner; also recorded: reduced the detection of ICAM-1
